Changes are numbered by the printed parent chain.
B1: 136: anti-c-MET antibody from yeast display screening; VH SEQ ID NO: 9, VL SEQ ID NO: 11 (antibody, V domains shown)
VH: EVQLQESGPGLVKPSETLSLTCTVSGGSVTSVNYYWKWIRQPPGKGLEWIGYISYSGNTNYNPSLKSRVTISVDTSKNQFSLKLSSVTAADTAVYYCVRAPYYYMDVWSKGTTVTVSS
VL: DIVMTQSPSSVSASVGDRVTITCRASQGISSWLAWYQQKPGKAPKLLIYAVSSLQSGVPSRFSGSGSGTDFTLTISSLQPEDFATYFCQQANSFPLTFGGGTKVEIK
B2: 187: anti-c-MET antibody from yeast display screening; VH SEQ ID NO: 13, VL SEQ ID NO: 15 (antibody, V domains shown)
VH: ELQLQESGPGLVKPSETLSLTCTVSGGSISSSSYYWGWIRQSPGKGLEWIGSRYYSGNTYYNPSLKSRVTMSVDTSKNQFSLKLRSVTAADTAVYYCARQVYDYWRDWGQGALVTVSS
VL: B1 VL with K45N, V51A, S53N, Q55P, D70V, F87Y, A91S
B3: Amivantamab analog Afu: control bispecific antibody obtained from the afucosylation cell line with gene knockout (antibody, chains of the INN, looked up, V domains shown)
VH: QVQLVESGGGVVQPGRSLRLSCAASGFTFSTYGMHWVRQAPGKGLEWVAVIWDDGSYKYYGDSVKGRFTISRDNSKNTLYLQMNSLRAEDTAVYYCARDGITMVRGVMKDYFDYWGQGTLVTVSS
VL: AIQLTQSPSSLSASVGDRVTITCRASQDISSALVWYQQKPGKAPKLLIYDASSLESGVPSRFSGSESGTDFTLTISSLQPEDFATYYCQQFNSYPLTFGGGTKVEIK
VH2: QVQLVQSGAEVKKPGASVKVSCETSGYTFTSYGISWVRQAPGHGLEWMGWISAYNGYTNYAQKLQGRVTMTTDTSTSTAYMELRSLRSDDTAVYYCARDLRGTNYFDYWGQGTLVTVSS
VL2: DIQMTQSPSSVSASVGDRVTITCRASQGISNWLAWFQHKPGKAPKLLIYAASSLLSGVPSRFSGSGSGTDFTLTISSLQPEDFATYYCQQANSFPITFGQGTRLEIK
modifications: afucosylated
notes: control bispecific antibody obtained from the afucosylation cell line with gene knockout

Key:
[1] = tested on: HGF-c-MET signaling pathway; assay: Blocking of HGF-c-MET signaling pathway in Gefitinib-treated HCC827 cells (single antibody concentration); format: cell-based, human; conditions: 3 days, Cell titer glo, FIG. 2
Protocol: HCC827 cells were human non-small cell lung cancer cells (purchased from the Cell Bank of the Chinese Academy of Sciences), which highly express epidermal growth factor receptor EGFR (exon 19 deletion) and c-Met receptor. The treatment with small molecule tyrosine kinase inhibitor (TKI) Gefitinib (gefitinib, an epidermal growth factor receptor tyrosine kinase inhibitor) would induce apoptosis in HCC827 cells. If HGF was added at the same time under such conditions, the c-Met pathway would be activated to induce HCC827 to produce resistance to Gefitinib, thereby inhibiting apoptosis.
The cell density of the HCC827 cells after the expanded culture was adjusted to 2×10^4 cells/ml, added to a 96-well cell culture plate at 100 μl/well, and cultured overnight for later use. The antibody to be tested was diluted to 1000 nM with 1640 medium, HGF was diluted to 800 ng/mL, and Gefitinib was diluted to 8 μM. According to the experimental requirements, the diluted antibody at 50 μl/well, HGF at 25 μl/well, and Gefitinib at 25 μl/well were added to the 96-well plate with HCC827 cells, and supplemented with 1640 medium to reach a total volume of 200 μl/well. After culturing for 3 days at 37° C. and 5% carbon dioxide, 100 μl of the medium was removed, and then Cell titer glo (purchased from Promega) was added at 100 μl/well, and the chemiluminescent signal was collected with an microplate reader.

monkey c-MET protein = assay: ForteBio affinity assay, monkey c-Met; format: binding
Protocol: (§1) After the antibodies were prepared, the ForteBio affinity assay was performed according to the reported method (Estep, P et al., Determination of antibody-antigen affinity and epitope binding based on high-throughput methods. MAbs, 2013.5(2): p. 270-8).

human c-MET protein = human c-MET protein (Homo sapiens, UniProt P08581); assay: ForteBio affinity assay, human c-Met; format: binding
Protocol: as §1

A375/H1975/HCC827 cells = assay: ADCC induction, CD16a-NFAT-Luc Jurkat reporter gene cells; format: cell-based, human; conditions: A375, H1975, HCC827 target cells, CD16a-NFAT-Luc Jurkat effector cells, 6 h, FIG. 9
From the text: A375 cells were human malignant melanoma cells and purchased from Addexbio, which were capable of expressing EGFR and c-Met receptors. H1975 cells were human lung adenocarcinoma cells and purchased from Addexbio, which were capable of highly expressing EGFR and c-Met receptors. HCC827 cells were human non-small cell lung cancer cells and purchased from the Cell Bank of the Chinese Academy of Sciences, which were capable of highly expressing EGFR and c-Met receptors. […]

[2] = tested on: H292 human lung cancer tumor cells; assay: Experimental Model 1: H292 tumor-bearing model; format: in vivo, CB-17 SCID mice; conditions: H292, Day 7: 10 mg/kg; Day 21: 2 mg/kg; last measured 29 days after inoculation
Protocol: In this experiment, CB-17 SCID mice were subcutaneously inoculated with H292 human lung cancer tumor cells to establish a tumor-bearing model and determine the anti-tumor effect of the anti-EGFRxc-Met bispecific antibody. Sufficient H292 cells were cultured and expanded in vitro, and the cells were collected after trypsin digestion. After washing with PBS for 3 times, the cells were counted and inoculated subcutaneously at the right abdomen of female 8-week-old CB-17 SCID mice (purchased from Beijing Weitong Lihua) at an amount of 3×10^6 cells/mouse. The subcutaneous tumor formation of tumor cells in the mice was observed daily, and the maximum width axis W and the maximum length axis L of the subcutaneous tumor on the right abdomen of each animal were measured with a vernier caliper, and the weight of each mouse was weighed with an electronic balance. The subcutaneous tumor volume on the right abdomen of each mouse was calculated according to the following formula: tumor volume T=1/2×W×W×L. The mice with too large and too small tumor volumes were eliminated, and the remained mice were divided into 4 groups according to the average tumor volume, with 6 mice in each group. […]
The tumor volume and weight of mice were measured 2 to 3 times a week. The weight and tumor volume of mice were measured for the last time 29 days after the tumor cell inoculation, and then the mice were euthanized.

human c-MET protein, sequence (P08581 25-1390): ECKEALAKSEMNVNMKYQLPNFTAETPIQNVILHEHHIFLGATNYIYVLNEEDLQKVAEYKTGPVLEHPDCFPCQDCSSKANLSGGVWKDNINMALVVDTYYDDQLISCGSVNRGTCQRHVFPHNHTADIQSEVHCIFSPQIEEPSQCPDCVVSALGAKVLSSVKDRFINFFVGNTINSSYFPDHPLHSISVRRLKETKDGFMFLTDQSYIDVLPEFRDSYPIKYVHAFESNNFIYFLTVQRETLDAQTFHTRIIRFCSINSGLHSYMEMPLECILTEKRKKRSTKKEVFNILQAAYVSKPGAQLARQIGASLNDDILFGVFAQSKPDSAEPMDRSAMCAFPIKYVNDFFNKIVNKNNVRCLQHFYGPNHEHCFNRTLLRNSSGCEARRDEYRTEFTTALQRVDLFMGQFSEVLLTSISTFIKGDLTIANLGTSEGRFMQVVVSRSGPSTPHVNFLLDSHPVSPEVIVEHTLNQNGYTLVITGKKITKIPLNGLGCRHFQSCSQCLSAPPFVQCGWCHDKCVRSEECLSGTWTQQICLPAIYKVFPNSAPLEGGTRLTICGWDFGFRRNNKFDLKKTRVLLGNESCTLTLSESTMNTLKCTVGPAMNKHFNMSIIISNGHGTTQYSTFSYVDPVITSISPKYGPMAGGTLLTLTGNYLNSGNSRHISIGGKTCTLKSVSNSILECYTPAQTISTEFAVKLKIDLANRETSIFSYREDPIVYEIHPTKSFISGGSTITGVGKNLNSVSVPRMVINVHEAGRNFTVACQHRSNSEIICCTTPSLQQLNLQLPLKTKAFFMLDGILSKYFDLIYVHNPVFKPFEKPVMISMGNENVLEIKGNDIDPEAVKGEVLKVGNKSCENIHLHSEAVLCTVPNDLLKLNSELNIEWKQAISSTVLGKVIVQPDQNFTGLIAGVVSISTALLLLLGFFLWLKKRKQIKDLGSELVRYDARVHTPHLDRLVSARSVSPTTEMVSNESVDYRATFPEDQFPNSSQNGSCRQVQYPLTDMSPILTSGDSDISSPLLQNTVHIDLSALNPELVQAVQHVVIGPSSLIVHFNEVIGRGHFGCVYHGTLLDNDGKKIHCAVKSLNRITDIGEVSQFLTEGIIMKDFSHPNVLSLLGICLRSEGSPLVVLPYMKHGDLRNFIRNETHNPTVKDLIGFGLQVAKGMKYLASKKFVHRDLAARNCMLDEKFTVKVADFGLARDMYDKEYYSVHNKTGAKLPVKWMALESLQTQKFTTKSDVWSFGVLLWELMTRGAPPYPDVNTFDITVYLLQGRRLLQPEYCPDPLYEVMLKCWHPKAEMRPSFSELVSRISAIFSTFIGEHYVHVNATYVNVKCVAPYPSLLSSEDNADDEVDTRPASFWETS

Molecule | restoring the proliferation inhibitory effect of Gefitinib on HCC827 cells by blocking HGF-c-MET signaling [1] | Koff (monkey c-MET protein) | Kon (monkey c-MET protein) | Koff (human c-MET protein) | Kon (human c-MET protein) | ADCC effect (A375/H1975/HCC827 cells) | tumor (volume) inhibition rate (TGI) [2]
B1 | could restore the proliferation inhibitory effect of Gefitinib on HCC827 cells | 0.000426 s⁻¹ | 369000 M⁻¹ s⁻¹ | 6.71e-06 s⁻¹ | 229000 M⁻¹ s⁻¹ | – | –
B2 | could restore the proliferation inhibitory effect of Gefitinib on HCC827 cells | 0.000947 s⁻¹ | 324000 M⁻¹ s⁻¹ | 0.000369 s⁻¹ | 220000 M⁻¹ s⁻¹ | – | –
B3 | – | – | – | – | – | stronger ADCC effect than the wild-type antibody containing fucose | 74.5%
